Results: patent publication US20140096284A1, “METHOD FOR THE DELIVERY OF MOLECULES LYOPHILIZED ONTO MICROPARTICLES TO PLANT TISSUES” (priority 2012, published 2014)

B1: trypsin: enzyme (Sigma) expected to digest intracellular protein (protein, UniProt P00760 24-246, looked up)
Serine protease 1: IVGGYTCGANTVPYQVSLNSGYHFCGGSLINSQWVVSAAHCYKSGIQVRLGEDNINVVEGNEQFISASKSIVHPSYNSNTLNNDIMLIKLKSAASLNSRVASISLPTSCASAGTQCLISGWGNTKSSGTSYPDVLKCLKAPILSDSSCKSAYPGQITSNMFCAGYLEGGKDSCQGDSGGPVVCSGKLQGIVSWGSGCAQKNKPGVYTKVCNYVSWIKQTIASN
B2: RNAse: enzyme (Sigma) expected to digest intracellular RNA content (protein, UniProt P61823 27-150, looked up)
Ribonuclease pancreatic: KETAAAKFERQHMDSSTSAASSSNYCNQMMKSRNLTKDRCKPVNTFVHESLADVQAVCSQKNVACKNGQTNCYQSYSTMSITDCRETGSSKYPNCAYKTTQANKHIIVACEGNPYVPVHFDASV
B3: β-glucuronidase: enzyme (Sigma) detected by X-gluc histochemical staining (protein, UniProt P05804 1-603, looked up)
Beta-glucuronidase: MLRPVETPTREIKKLDGLWAFSLDRENCGIDQRWWESALQESRAIAVPGSFNDQFADADIRNYAGNVWYQREVFIPKGWAGQRIVLRFDAVTHYGKVWVNNQEVMEHQGGYTPFEADVTPYVIAGKSVRITVCVNNELNWQTIPPGMVITDENGKKKQSYFHDFFNYAGIHRSVMLYTTPNTWVDDITVVTHVAQDCNHASVDWQVVANGDVSVELRDADQQVVATGQGTSGTLQVVNPHLWQPGEGYLYELCVTAKSQTECDIYPLRVGIRSVAVKGEQFLINHKPFYFTGFGRHEDADLRGKGFDNVLMVHDHALMDWIGANSYRTSHYPYAEEMLDWADEHGIVVIDETAAVGFNLSLGIGFEAGNKPKELYSEEAVNGETQQAHLQAIKELIARDKNHPSVVMWSIANEPDTRPQGAREYFAPLAEATRKLDPTRPITCVNVMFCDAHTDTISDLFDVLCLNRYYGWYVQSGDLETAEKVLEKELLAWQEKLHQPIIITEYGVDTLAGLHSMYTDMWSEEYQCAWLDMYHRVFDRVSAVVGEQVWNFADFATSQGILRVGGNKKGIFTRDRKPKSAAFLLQKRWTGMNFGEKPQQGGKQ

How the values were obtained:
onion epidermis tissue [1] = test: Fluorescein diacetate staining, count of dead cells after bombardment; assay type: cell-based; conditions: 200 μg trypsin or 40 μg RNAse per shot lyophilized onto 0.6 μm gold
Protocol: Onion epidermis tissues were submerged in 10 mL of MS liquid media to which 100 μL of a 5 mg mL^−1 of fluorescein diacetate (Alfa Aesar) solution in acetone were added. The samples were incubated for 2-5 minutes and directly observed under the green channel filter of the fluorescence microscope. For quantitative measurements, 12 images (10.5×8 mm) were taken with the 5× microscope objective scattered every 0.5 cm (4 columns×3 rows). The total amount of dead cells found on each image was counted.
The high concentration of protein used per shot (250 μg per shot) and the lyophilization process could cause cell death by: (1) physical damage of the potential clumps produced after lyophilizing protein and microparticles and (2) excess of intracellular protein delivery reaching toxic levels. To assess cellular death, onion epidermis tissues were stained with fluorescein diacetate, which stains in fluorescent green the living cells, while the dead ones remain dark (FIG. 7A). […]
As another example of active enzyme delivery, trypsin and RNAse A were chosen. […] The number of dead cells was measured using fluorescein diacetate staining in samples not bombarded, bombarded only with 0.6 μm gold or with 200 μg of trypsin or 40 μg of RNAse per shot. […]

[2] = system: mouse ear pinna tissue cells; test: Delivery of active β-glucuronidase to mouse ear pinna tissue cells; assay type: cell-based, CD-1 mice; conditions: 200 μg per shot air-dried with 90 μg 0.6 μm gold; 650 and 1100 psi; sixteen hours
Protocol: A mixture of 90 μg of 0.6 μm gold and 200 μg of β-glucuronidase per shot were air-dried onto the macrocarrier set for 2 hours. Ear pinnas of 8 week old CD-1 mice were dissected right after animals were euthanized. The tissues were disposed with the inner part of the ear upwards on an agar medium plate (FIG. 17A) and were immediately bombarded using the PDS-1000/He gene-gun at 650 psi or 1100 psi, 6 cm target distance and 28 mmHg vacuum. Samples were then soaked in X-gluc solution and incubated at 37° C. overnight. Sixteen hours later samples were examined under the microscope. […] Multiple gold particles (detected as dark dots) could be detected in different depths of the same cell (FIG. 17C). The localization of these blue cells in the bombarded tissue is the result of active β-glucuronidase protein delivery.

onion epidermis tissue [3] = test: Biolistic delivery of air-dried or freeze-dried protein or DNA, with or without 0.6 μm gold, to onion epidermis; assay type: cell-based
Protocol: Previously, protein and 0.6 μm gold projectiles were mixed and poured on top of a macrocarrier of the gene gun, frozen in liquid nitrogen, and lyophilized or freeze-dried. The same experiment was repeated by pouring the protein/0.6 μm gold mixture over a macrocarrier and leaving it to dry on top of a bench for 1 hour or overnight, termed “air-dried” (FIG. 10A). The experiment was done with two different proteins, β-glucuronidase and DS-RED2. Onion epidermis tissues were bombarded using these macrocarriers. An experiment was conducted using β-glucuronidase and DS-RED2, air-dried directly onto the macrocarriers without 0.6 μm gold projectiles (FIG. 10B). […] An experiment was conducted to compare DNA coating based on CaCl2/spermidine precipitation, freeze-drying or air-drying, and 0.6 μm gold particles. […] A DNA containing solution was freeze-dried or air-dried (without 0.6 μm gold projectiles) directly onto macrocarriers. Onion epidermis tissues were bombarded and 1 to 20 fluorescent cells could be observed (FIG. 15 and FIG. 16). Even though the number of cells that were transfected is much lower than when using 0.6 μm gold, protein can be delivered without the use of projectiles.

[4] = system: onion epidermis cell tissues; test: Bombardment of onion epidermis with liquid protein solutions; assay type: cell-based; conditions: liquid protein solution on macrocarrier; tissue damage was caused
Description: As a control, β-glucuronidase and DS-RED2 protein solutions were poured over the macrocarrier and onion epidermis cell tissues were bombarded. […] However, the use of lesser volumes, less harsh gene-gun conditions or other liquid propelling methodologies may allow for protein delivery with less tissue damage.

onion epidermis tissue [5] = test: Biolistic delivery of molecules lyophilized onto 0.6 μm gold microcarriers to onion epidermis tissue; assay type: cell-based; conditions: 275 μg per shot lyophilized onto 0.6 μm gold, one day after bombardment
Protocol: 2 μL of 0.6 μm gold particle stock was mixed with 1 μg of GFP plasmid pLMNC95 or 2 μL of a 400 ng/μL, TRITC-BSA solution. The mixture was poured on a macrocarrier, frozen in liquid nitrogen and freeze-dry for 1 hour prior to onion epidermis tissue bombardment.
Onion epidermis tissue was obtained from the scale leaves of white onion bulbs. Rectangular (3×2.5 cm) pieces were peeled right before the bombardment and placed in solid agar media (0.5 mM of 2-(N-morpholino)ethanesulfonic acid (MES), 15 g L^−1 Bacto agar (BD), pH 5.7) with the peeled side upwards. For quantitative measurements, epidermis pieces of the same scale leaf were distributed among treatments. Tobacco leaves (Nicotiana tabacum var. Petite Havana) were obtained from 3-6 week old in vitro grown plants on MS media (MS medium (Murashige and Skoog, 1962), 2% sucrose, 2.5 g L^−1 gelrite, pH 5.7). Leaves were cut right before bombardment and put with the adaxial surface up on agar media. Hill maize immature embryos were obtained from immature ears provided by the Center for Plant Transformation—Iowa State University. […]
Bright field and fluorescence images were taken using a Zeiss Axio star plus microscope. […] For the green channel fluorescence images a GFP BP filter (Chroma Technology Corp.) was used (λex=470 nm, beam splitter=495 nm and λem=525 nm). […]

onion epidermis tissues = test: Delivery of β-glucuronidase or plasmid DNA air dried onto tungsten particles to onion epidermis; assay type: cell-based; conditions: 200 μg per shot air-dried onto M5 or M17 tungsten; 1100 psi/6 cm
Protocol: M5 (0.4 μm in size) and M17 (1.1 μm in size) tungsten particles from Bio-Rad were used. 100 μg of each type of particle and 200 μg of β-glucuronidase enzyme or 1 μg of GFP expressing plasmid pLMNC95 were used per shot. The suspensions were air dried for 2 hours onto the macrocarrier-set. Onion epidermis tissues were bombarded at 1100 psi/6 cm. Samples bombarded with β-glucuronidase were incubated overnight at 37° C. in X-gluc solution as previously described.

Molecule | dead cells compared with controls without the enzymes (indirect measurement of enzyme activity) (onion epidermis tissue [1]) | active enzyme delivery (blue cells after X-gluc incubation) [2] | protein delivery after bombardment (onion epidermis tissue [3]; air-dried directly onto macrocarriers without 0.6 μm gold) | degradation when subjected to air drying (onion epidermis tissue [3]; air-dried on macrocarrier) | protein delivery after bombardment (onion epidermis tissue [3]; air-dried with 0.6 μm gold on macrocarrier for 1 hour or overnight) | protein delivery after bombardment [4] | active enzyme delivery (blue cells after X-gluc staining) (onion epidermis tissue [5]) | active enzyme delivery (blue cells after X-gluc incubation) (onion epidermis tissues)
B1 | large amounts of dead cells | – | – | – | – | – | – | –
B2 | large amounts of dead cells | – | – | – | – | – | – | –
B3 | – | several blue cells were localized in the tissues | protein delivery also could be detected | not substantially degraded | protein delivery was achieved | no protein delivery was observed | several blue cells could be observed | several cells were showing blue coloration
